The target of test [1] is αvβ3 and αvβ5 integrins on cells that express both (M21, A375S2/A375S.2, HUVEC) (human) (UniProt P06756). In words: cell-based or functional assay.
For test [2] the target is unchanged. Nature of the test: flow cytometry on M21 cells; FITC-goat anti-human Fc-labeled CNTO95 at 2 µg/mL, saline instead of competitor. For orientation: A flow cytometer gives signals particle by particle.
Test [3] has the same target. In words: flow cytometry on M21 cells; FITC-goat anti-human Fc-labeled CNTO95 at 20 µg/mL, saline instead of competitor.
For test [4], the target named is human αvβ3 integrin on cells (human) (UniProt P06756). Nature of the test: flow cytometry on M21 cells; signal of the competitor FITC-labeled CNTO95 at 2 µg/mL; row antibody at 20 µg/mL. Further details: % Positive: reference not given here.
The target is the same in test [5]. In words: flow cytometry on M21 cells; signal of the competitor FITC-labeled CNTO95 at 20 µg/mL; row antibody at 20 µg/mL.
In test [6] the target is human αvβ5 integrin on cells (human) (UniProt P06756). Nature of the test: flow cytometry on M21 cells; signal of the competitor FITC-labeled CNTO95 at 2 µg/mL; row antibody at 20 µg/mL. Further details: % Positive: reference not given here.
Test [7] has the same target. In words: flow cytometry on M21 cells; signal of the competitor FITC-labeled CNTO95 at 20 µg/mL; row antibody at 20 µg/mL.
Setting [8] is: scale: % of cell adhesion in the absence of antibody.

As for CNTO 95 (antibody), the minimal concentration for complete inhibition of MDAMB435L2 cell adhesion to vitronectin in test [1] was 1.5 µg/mL. Further, in test [1] (setting [8]), the A375S.2 cell adhesion to fibrin, antibody 10 µg/ml stood at 43.3; the A375S.2 cell adhesion to fibrinogen, antibody 10 µg/ml worked out at 11.4; the A375S.2 cell adhesion to gelatin, antibody 10 µg/ml is 23.2; the A375S.2 cell adhesion to vitronectin, antibody 10 µg/ml is 1.4. Besides, in test [1] (setting [8]), the HUVEC adhesion to fibrin, antibody 10 µg/ml turned out to be 45.1; the HUVEC adhesion to fibrinogen, antibody 10 µg/ml worked out at 34.5; the HUVEC adhesion to gelatin, antibody 10 µg/ml worked out at 54.8; the HUVEC adhesion to vitronectin, antibody 10 µg/ml amounted to 3.3. In addition, in test [2], the MCF (median channel fluorescence) came to 4.33. The substance further returned an MCF (median channel fluorescence) in test [3] of 14.3.
For the substance m7E3 IgG (antibody), the % Positive in test [4] amounted to 132%; in test [5] it was 103%. Also, the MCF (median channel fluorescence) in test [4] worked out at 5.73; in test [5], 14.7.
The like results for LM609 (antibody) were, in that order, 110%, 93%, 4.78 and 13.3.
Consider P1F6 (antibody), for which the % Positive in test [6] was 112%; in test [7] it was 101%. For the same substance, the MCF (median channel fluorescence) in test [6] was found to be 4.87; in test [7] it was 14.5.
